Results as given in PMC4095729.

Target: biotinylated DAE10 peptide (Aβ1-10 conjugated to biotin at the carboxy-terminus)
Test: SPR; BIAcore; biotinylated DAE10 peptide (Aβ1-10) immobilised on streptavidin coated chips at low density (4 to 7 RU); whole antibodies injected in triplicate at 100 nM, 30 μl/minute; apparent rate constants, bivalent model, KD corrected for active concentration of antibody

Kd [nM]	koff [s⁻¹]	kon [M⁻¹ s⁻¹]	Binder
2.1	0.000399	189000	Humanized 3D6 version 1 (antibody, V domains shown) VH: EVQLLESGGGLVQPGGSLRLSCAASGFTFSNYGMSWVRQAPGKGLEWVASIRSGGGRTYYSDNVKGRFTISRDNAKNSLYLQMNSLRAEDTALYYCVRYDHYSGSSDYWGQGTLVTVSS VL: YVVMTQSPLSLPVTPGEPASISCKSSQSLLDSDGKTYLNWLLQKPGQSPQRLIYLVSKLDSGVPDRFSGSGSGTDFTLKISRVEAEDVGVYYCWQGTHFPRTFGQGTKVEIK
2.8	0.000423	150000	Bapineuzumab (humanized 3D6, version 2) (antibody, V domains shown) VH: EVQLLESGGGLVQPGGSLRLSCAASGFTFSNYGMSWVRQAPGKGLEWVASIRSGGGRTYYSDNVKGRFTISRDNSKNTLYLQMNSLRAEDTAVYYCVRYDHYSGSSDYWGQGTLVTVSS VL: DVVMTQSPLSLPVTPGEPASISCKSSQSLLDSDGKTYLNWLLQKPGQSPQRLIYLVSKLDSGVPDRFSGSGSGTDFTLKISRVEAEDVGVYYCWQGTHFPRTFGQGTKVEIK
